Source: patent US20140220033A1, “Administration of an Anti-Activin-A Compound to a Subject” (Santa Maria Biotherapeutics, Inc., priority 2013, published 2014)

Assays:
activin-A (βA) mRNA [1] = experiment: Endogenous activin-A (βA) mRNA in cell cultures (real-time RT-PCR); format: cell-based, human, bovine; conditions: TOV21G, BAEC, MRC-5, CCD-Lu, U937 and THP-1 cultures treated with recombinant activin-A, without or with sActRIIB; FIG. 18
[2] = system: testicular tumors in inh-KO mice; experiment: Light microscopy (H&E) of testes of inh-KO mice; format: in vivo, mouse; conditions: male inh-KO mice; FIG. 7B
Method: (§1) 12-week-old female and 8-week-old male inh-KO mice with fully established ovarian or testicular tumors received a single injection of PBS or sActRIIB (30 mg/kg, SC). As a control, age-matched wild-type littermates received a single injection of PBS. Ovarian and testicular organ weights were determined by necropsy 14 days after the injection.
Testes and ovaries from inh-KO mice were fixed with Zinc-formalin. Tissue sections were subjected to H&E staining and then examined with a Nikon Eclipse 90i microscope.

Ang-1 mRNA = Ang-1 mRNA in cell cultures (real-time RT-PCR); format: cell-based, human, bovine; conditions: BAEC, MRC-5 and CCD-Lu cultures treated with recombinant activin-A, without or with sActRIIB; FIG. 16B
[3] = system: testicular tumors in inh-KO mice; experiment: Testicular tumor mass in inh-KO mice (necropsy); format: in vivo, mouse; conditions: 8-week-old male inh-KO mice; single dose 30 mg/kg SC; necropsy 14 days after injection; FIG. 4A, 4B
Method: as §1

Ang-1 = Ang-1 release into culture medium (ELISA); format: cell-based, human; conditions: MRC-5 and CCD-Lu cells treated with activin-A, without or with sActRIIB; FIG. 17B
Method: (§2) The serum VEGF levels in inh-KO mice were measured by using immunoassay kit (R&D Systems), and the levels of human VEGF and Ang-1 in cell line culture medium were quantified using ELISA kits purchased from Invitrogen (VEGF) and R&D Systems (Ang-1), by following the manufacturers' recommended protocols.

IGFPB-2 = experiment: Western blot of IGFBP-2 in ovarian tumors of inh-KO mice; format: in vivo, mouse; conditions: FIG. 8D
Method: as §1
(§3) Protein extracts were prepared from cell cultures or tissues in T-PER tissue protein extraction reagent (Pierce) containing a mixture of protease inhibitors (Roche). A pool of 50 μg total protein for each group containing equal amounts of protein extract isolated from individual animals was separated by NuPAGE 4-12% Bis-Tris gel (Invitrogen) and transferred to PVDF. The membranes were probed with primary antibodies against total Smad2, p-Smad2 or E-cadherin (1:1000; Cell Signaling), endoglin, osteopontin (1:500; R&D Systems), IGFBP-1, IGFBP-2 (1:500; Abcam) followed by HRP-conjugated secondary antibody (1:2000; Cell Signaling). The membranes were stripped and re-probed with antibody against α-tubulin (1:1000; Cell Signaling).

VEGF = experiment: Serum VEGF in inh-KO mice (ELISA); format: in vivo, mouse; conditions: inh-KO mice with advanced ovarian and testicular tumors; single dose; FIG. 8A
Method: as §1, §2

[4] = system: G361 human melanoma xenografts; experiment: G361 human melanoma xenograft growth in nude mice; format: in vivo; conditions: sActRIIB 20 mg/kg SC 1x/week from day 14, FIG. 19
Method: 5×10^6 G361 melanoma cells and 5637 bladder carcinoma cells, respectively, were inoculated SC into individual athymic nu/nu mice (Harlan Inc). Treatment was initiated 4 days after 5637 implantation and 14 days after G361 implantation, when the tumor volumes reached 130 mm^3−150 mm^3 5637-implanted mice received PBS or activin-A antibody (10 mg/kg, SC, 2×/week). G361-implanted mice received PBS or sActRIIB (20 mg/kg, SC, 1×/week).
(§4) For all xenograft experiments, the tumor sizes were measured longitudinally by using an electronic caliper Immediately prior to the 1st dose, the tumor-bearing mice were randomized to ensure even distribution in tumor sizes across different groups. Tumor volumes (mm^3) were calculated as tumor length (mm)×tumor width (mm)×tumor height (mm) Tumor weights were determined by necropsy.

VEGF transcripts = experiment: VEGF mRNA in cell cultures (real-time RT-PCR); format: cell-based, human, bovine; conditions: TOV-21G, BAEC, MRC-5, CCD-Lu, U937 cultures treated with recombinant activin-A, without or with sActRIIB; FIG. 16A
activin-A (βA) mRNA [5] = experiment: Northern blot of activin-A (βA) mRNA in tumors of inh-KO mice; format: in vivo, mouse; conditions: increase over WT controls, FIG. 5A
Method: as §1
Total RNA was isolated from individual tissue samples after homogenization in Trizol (Invitrogen). A pool of 10 μg RNA for each group containing equal amounts of total RNA isolated from individual animals was subjected to Northern blot analysis. The northern probes used for βA and Ang-2 were generated by using RT-PCR (Phusion, Biolabs). βA primer set: 5′-CCCTTGCTTTGGCTGAGAGGA-3′ and 5′-TC ACA GGT CGT CGT AGG TCG-3′; Ang-2 primer set: 5′-TGT GCC GGG GAG AAG AG and 5′-TACAGTAGTGGGTTGAGGTTC-3′. To normalize the expression, northern blot membranes were re-probed with β-actin.

[6] = system: Smad2 signaling (phospho-Smad2); experiment: Western blot of phospho-Smad2 in tumors of inh-KO mice; format: in vivo, mouse; conditions: increase over WT controls, FIG. 5B
Method: as §1, §3

IGFBP-1 = experiment: Western blot of IGFBP-1 in ovarian tumors of inh-KO mice; format: in vivo, mouse; conditions: FIG. 8D
Method: as §1, §3

[7] = Body weight of TOV-21G xenograft-bearing mice; format: in vivo, mouse; conditions: TOV-21G xenograft-bearing athymic nude mice; during the course of the experiment; vehicle controls lost 10%
Method: (§5) In another experiment, athymic nude mice received TOV-21G xenografts in the abdominal flank. After 14 days, subcutaneous hu-sActRIIB-Fc was administered weekly alone or in combination with 5-FU.

[8] = system: TOV-21G ovarian cancer xenografts; experiment: TOV-21G ovarian cancer xenograft growth in nude mice; format: in vivo, mouse
Method: 5×10^6 TOV-21G ovarian cancer cells were implanted subcutaneously into individual female athymic nu/nu mice (Harlan). Treatment was initiated at day 12 after tumor implantation, when the average tumor volume reached approximately 150 mm^3. The mice received PBS, sActRIIB (30 mg/kg, SC, 1×/week) or activin-A antibody (30 mg/kg, SC, 2×/week). In a separate chemotherapy combination experiment, the mice were treated with PBS, sActRIIB (10 mg/kg, SC, 1×/week), 5-FU (50 mg/kg, IP, 3 cycles, 4 daily injections per cycle) or sActRIIB and 5-FU combination at the same doses above.
as §4, §5

B1: sActRIIB: extracellular domain of human activin type-2B receptor fused to IgG2 Fc, expressed in CHO cells; sequence in the 26th table (protein)
chain: ETRWCIYYNANWELERTNQGLERCEGEQDKRLHCYASWRNSSGTIELVKKGCWLDDFNCYDRQECVATEENPQVYFCCCEGNFCNERFTHLPEAGGPEVTYEPPPTAPTGGGGSVECPPCPAPPVAGPSVFLFPPKPKDTLMISRTPEVTCVVVDVSHEDPEVQFNWYVDGVEVHNAKTKPREEQFNSTFRVVSVLTVVHQDWLNGKEYKCKVSNKGLPAPIEKTISKTKGQPREPQVYTLPPSREEMTKNQVSLTCLVKGFYPSDIAVEWESNGQPENNYKTTPPMLDSDGSFFLYSKLTVDKSRWQQGNVFSCSVMHEALHNHYTQKSLSLSPGK
modifications: left off: a dimerising Fc or GST
In the case of B1, the “endogenous βA mRNA expression” value (activin-A (βA) mRNA [1]) is reported as “blocked completely”, the “testicular morphology (light microscopy)” value [2] is reported as “the testes were normal in size and filled with seminiferous tubules” and the “levels of Ang-1 mRNA” value (Ang-1 mRNA) is reported as “prevented this induction”. The testicular tumor mass [3] was “dramatic regression of testicular tumor masses to the WT control levels”, the “release of Ang-1 into the culture medium” value (Ang-1) was “blocked completely” and the “IGFPB-2 induction (Western blot)” value (IGFPB-2) was “abolished completely”. For the same molecule, the “circulating VEGF levels” value (VEGF) was “rapidly lowered the elevated VEGF to WT control levels”, the “growth rates and sizes of G361 melanoma xenografts” value [4] was “significantly decreased the growth rates and sizes” and the “levels of VEGF transcripts” value (VEGF transcripts) was “prevented this induction”. For the same molecule, the “βA transcripts in the tumors (Northern blot)” value (activin-A (βA) mRNA [5]) was “completely blocked”, the “phospho-Smad2 in tumor tissues (Western blot)” value [6] was “eliminated this increase in phospho-Smad2” and the “IGFBP-1 induction (Western blot)” value (IGFBP-1) was “abolished completely”. The body weight increase [7] was 26%, the tumor growth reduction ([8]; 52 days after tumor cell injection, versus vehicle-treated tumor-bearing group, p<0.0001, weekly SC hu-sActRIIB-Fc from day 14, alone or with 5-FU) was 43% and the “rate of tumor growth of TOV-21G xenografts” value ([8]; chemotherapy combination experiment, sActRIIB 10 mg/kg SC 1x/week, 5-FU 50 mg/kg IP 3 cycles, alone or together, FIG. 13) was “decreased the rate of tumor growth significantly”. For the same molecule, the “growth of TOV-21G ovarian cancer xenografts” value ([8]; nude mice, sActRIIB 30 mg/kg SC 1x/week or activin-A antibody 30 mg/kg SC 2x/week from day 12, FIG. 10B) was “significantly inhibited the growth”.
